The target of assay [1] is T1, USP4 catalytic domain (USP4 CD, residues 296–925) (human, UniProt Q13107 296-925).
T1 sequence (looked up): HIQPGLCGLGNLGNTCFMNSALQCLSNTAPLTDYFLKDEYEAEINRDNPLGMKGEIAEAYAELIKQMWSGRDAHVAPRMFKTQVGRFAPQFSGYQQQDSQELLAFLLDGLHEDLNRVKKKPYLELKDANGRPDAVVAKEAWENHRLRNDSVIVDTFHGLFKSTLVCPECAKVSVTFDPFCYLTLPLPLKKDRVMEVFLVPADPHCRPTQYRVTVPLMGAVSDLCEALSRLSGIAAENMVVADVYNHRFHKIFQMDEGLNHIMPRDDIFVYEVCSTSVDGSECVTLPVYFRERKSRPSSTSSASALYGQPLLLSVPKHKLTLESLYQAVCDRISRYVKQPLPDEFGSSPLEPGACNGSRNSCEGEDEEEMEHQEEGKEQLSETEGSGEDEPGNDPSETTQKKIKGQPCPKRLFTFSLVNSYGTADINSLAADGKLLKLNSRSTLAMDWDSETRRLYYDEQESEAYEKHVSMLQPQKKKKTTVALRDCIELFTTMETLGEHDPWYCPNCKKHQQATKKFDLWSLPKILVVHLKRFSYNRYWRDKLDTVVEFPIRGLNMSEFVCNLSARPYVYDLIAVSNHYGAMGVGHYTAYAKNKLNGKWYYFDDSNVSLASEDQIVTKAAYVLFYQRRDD
In words: cell-based or functional assay.

In assay [2] the target is T2, USP4 CD (residues 296–925), biotinylated on lysines (human, UniProt Q13107 296-925, biotin on lysines (half molar amounts of EZ-Link Sulfo-NHS-LC-LC-biotin)).
T2 construct: USP4, human, catalytic domain with the insert, residues 296-925; same construct as m2, biotinylated for capture on the SA sensor chip; also called immobilized USP4 CD; biotinylated USP4; source: E. coli BL21(DE3), purified, then biotinylated
T2 sequence (looked up): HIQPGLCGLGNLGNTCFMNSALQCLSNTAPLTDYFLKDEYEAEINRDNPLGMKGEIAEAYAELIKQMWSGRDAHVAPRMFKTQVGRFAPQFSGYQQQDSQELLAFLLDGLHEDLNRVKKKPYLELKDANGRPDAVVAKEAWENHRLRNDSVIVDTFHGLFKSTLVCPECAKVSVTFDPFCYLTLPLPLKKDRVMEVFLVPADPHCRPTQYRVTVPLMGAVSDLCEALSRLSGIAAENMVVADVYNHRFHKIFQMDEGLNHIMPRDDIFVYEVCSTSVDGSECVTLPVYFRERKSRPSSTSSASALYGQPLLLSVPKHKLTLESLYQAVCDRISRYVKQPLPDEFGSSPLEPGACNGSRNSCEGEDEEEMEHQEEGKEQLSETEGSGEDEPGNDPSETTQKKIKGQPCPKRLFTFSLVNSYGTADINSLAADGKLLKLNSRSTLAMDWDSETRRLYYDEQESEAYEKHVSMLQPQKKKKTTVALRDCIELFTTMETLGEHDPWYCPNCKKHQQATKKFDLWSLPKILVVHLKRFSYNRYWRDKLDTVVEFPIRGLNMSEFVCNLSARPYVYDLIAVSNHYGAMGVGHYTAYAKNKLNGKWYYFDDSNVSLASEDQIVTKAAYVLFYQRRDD
In words: SPR; Biacore T100, 25 °C; ~100 RU of biotinylated USP4 construct on SA chip; DUSP–Ubl concentration series flowed at 30 μl/min in 20 mM HEPES pH 7.5, 150 mM NaCl, 5 mM DTT, 0.05% Tween 20 with NSB reducer; apparent KD from EvilFit after removing the slow nonspecific off-rate component. The conditions noted are these: both partners purified.

Assay [3] concerns the target T3, USP4 insert (residues 483–765), biotinylated on lysines (human, UniProt Q13107 483-765, biotin on lysines (half molar amounts of EZ-Link Sulfo-NHS-LC-LC-biotin)).
T3 construct: USP4, human, the domain inserted within the catalytic core (carries a Ubl domain), residues 483-765; source: E. coli BL21(DE3), purified, then biotinylated
T3 sequence (looked up): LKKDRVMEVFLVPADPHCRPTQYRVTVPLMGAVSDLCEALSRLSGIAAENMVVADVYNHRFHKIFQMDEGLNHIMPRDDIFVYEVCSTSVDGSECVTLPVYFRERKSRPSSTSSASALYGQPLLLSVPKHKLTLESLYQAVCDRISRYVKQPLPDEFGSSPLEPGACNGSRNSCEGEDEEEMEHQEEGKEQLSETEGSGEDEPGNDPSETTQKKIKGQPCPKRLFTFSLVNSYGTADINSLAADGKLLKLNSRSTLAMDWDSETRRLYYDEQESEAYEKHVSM
The description is as above. The conditions noted are these: both partners purified.

Assay [4] deals with T4, N-terminally TAMRA-labelled ubiquitin (UniProt P0CG48 1-76, TAMRA on the N-terminus).
T4 construct: ubiquitin, the cut product of the ubiquitin precursors; also called TAMRAUb; TAMRA-Ubiquitin
As to the kind of experiment: fluorescence polarisation; equilibrium: different concentrations of USP4 with 2.5 nM TAMRA-ubiquitin; same setup as the Ub–Rhod assays (25 °C, 20 mM HEPES pH 7.5, 150 mM NaCl, 5 mM DTT, 0.05% Tween 20); one-site binding model accounting for ligand depletion. Particulars: both partners purified.

Assay [5] has as its target T4, N-terminally TAMRA-labelled ubiquitin. As to the kind of experiment: fluorescence polarisation; stopped-flow, association: equal volumes of USP4 (100–1,000 nM) and TAMRA-ubiquitin rapidly mixed; 20 °C; 20 mM HEPES pH 7.5, 150 mM NaCl, 5 mM DTT, 0.05% Tween 20; single exponential, kon as slope of Kobs against USP4 concentration. The conditions noted are these: both partners purified.

The target is the same in assay [6]. As to the kind of experiment: fluorescence polarisation; stopped-flow, dissociation: USP4 constructs (12.5–250 nM) incubated with 2.5 nM TAMRA-ubiquitin 10–30 min, mixed with equal volume of 2.5 μM non-labelled ubiquitin; 20 °C; 20 mM HEPES pH 7.5, 150 mM NaCl, 5 mM DTT, 0.05% Tween 20; global fit to a two-phase decay (k_slow, k_fast). Particulars: both partners purified.

B1: USP4 DUSP–Ubl domain (residues 8–228) (domain or fragment, human, UniProt Q13107 8-228, looked up)
chain: RERPDAETQKSELGPLMRTTLQRGAQWYLIDSRWFKQWKKYVGFDSWDMYNVGEHNLFPGPIDNSGLFSDPESQTLKEHLIDELDYVLVPTEAWNKLLNWYGCVEGQQPIVRKVVEHGLFVKHCKVEVYLLELKLCENSDPTNVLSCHFSKADTIATIEKEMRKLFNIPAERETRLWNKYMSNTYEQLSKLDNTVQDAGLYQGQVLVIEPQNEDGTWPRQT
notes: USP4, human, N-terminal tandem DUSP–Ubl domain, residues 8-228
Consider B1, for which, in assay [1], the “Ub–Rhod catalytic rate of USP4 CD (50 nM, 5 μM substrate) with DUSP–Ubl added in trans at different concentrations up to 150 μM” value is ~9 fold. Also, the Kd in assay [2] was ~100 µM; in assay [3], ~44 µM.

B2: USP4 DUSP–Ubl Y136A (domain or fragment, human, UniProt Q13107 8-228, looked up)
chain: RERPDAETQKSELGPLMRTTLQRGAQWYLIDSRWFKQWKKYVGFDSWDMYNVGEHNLFPGPIDNSGLFSDPESQTLKEHLIDELDYVLVPTEAWNKLLNWYGCVEGQQPIVRKVVEHGLFVKHCKVEVALLELKLCENSDPTNVLSCHFSKADTIATIEKEMRKLFNIPAERETRLWNKYMSNTYEQLSKLDNTVQDAGLYQGQVLVIEPQNEDGTWPRQT
notes: USP4, human, DUSP–Ubl domain residues 8-228 with Y136A at the interface of the DUSP and Ubl domains; also called mutant DUSP–Ubl
With B2, the binding result in assay [2] and in assay [3] was “binds” throughout.

B3: USP4 CD F386G (domain or fragment, human, UniProt Q13107 296-925, looked up)
chain: HIQPGLCGLGNLGNTCFMNSALQCLSNTAPLTDYFLKDEYEAEINRDNPLGMKGEIAEAYAELIKQMWSGRDAHVAPRMFKTQVGRFAPQGSGYQQQDSQELLAFLLDGLHEDLNRVKKKPYLELKDANGRPDAVVAKEAWENHRLRNDSVIVDTFHGLFKSTLVCPECAKVSVTFDPFCYLTLPLPLKKDRVMEVFLVPADPHCRPTQYRVTVPLMGAVSDLCEALSRLSGIAAENMVVADVYNHRFHKIFQMDEGLNHIMPRDDIFVYEVCSTSVDGSECVTLPVYFRERKSRPSSTSSASALYGQPLLLSVPKHKLTLESLYQAVCDRISRYVKQPLPDEFGSSPLEPGACNGSRNSCEGEDEEEMEHQEEGKEQLSETEGSGEDEPGNDPSETTQKKIKGQPCPKRLFTFSLVNSYGTADINSLAADGKLLKLNSRSTLAMDWDSETRRLYYDEQESEAYEKHVSMLQPQKKKKTTVALRDCIELFTTMETLGEHDPWYCPNCKKHQQATKKFDLWSLPKILVVHLKRFSYNRYWRDKLDTVVEFPIRGLNMSEFVCNLSARPYVYDLIAVSNHYGAMGVGHYTAYAKNKLNGKWYYFDDSNVSLASEDQIVTKAAYVLFYQRRDD
notes: USP4, human, catalytic domain residues 296-925, switching loop mutant F386G; made with the QuickChange mutagenesis kit
For the molecule B3, the Kd in assay [4] is ~1 µM. Also, the kon in assay [5] is 35000 ± 7000 M⁻¹ s⁻¹. In addition, in assay [6], the “k_fast (dissociation, fast component)” value was found to be 0.12 ± 0.016 s⁻¹ and the “k_slow (dissociation, slow component)” value came to 0.015 ± 0.0006 s⁻¹.

B4: USP4 FL F386G (enzyme, human, UniProt Q13107 8-925, looked up)
chain: RERPDAETQKSELGPLMRTTLQRGAQWYLIDSRWFKQWKKYVGFDSWDMYNVGEHNLFPGPIDNSGLFSDPESQTLKEHLIDELDYVLVPTEAWNKLLNWYGCVEGQQPIVRKVVEHGLFVKHCKVEVYLLELKLCENSDPTNVLSCHFSKADTIATIEKEMRKLFNIPAERETRLWNKYMSNTYEQLSKLDNTVQDAGLYQGQVLVIEPQNEDGTWPRQTLQSKSSTAPSRNFTTSPKSSASPYSSVSASLIANGDSTSTCGMHSSGVSRGGSGFSASYNCQEPPSSHIQPGLCGLGNLGNTCFMNSALQCLSNTAPLTDYFLKDEYEAEINRDNPLGMKGEIAEAYAELIKQMWSGRDAHVAPRMFKTQVGRFAPQGSGYQQQDSQELLAFLLDGLHEDLNRVKKKPYLELKDANGRPDAVVAKEAWENHRLRNDSVIVDTFHGLFKSTLVCPECAKVSVTFDPFCYLTLPLPLKKDRVMEVFLVPADPHCRPTQYRVTVPLMGAVSDLCEALSRLSGIAAENMVVADVYNHRFHKIFQMDEGLNHIMPRDDIFVYEVCSTSVDGSECVTLPVYFRERKSRPSSTSSASALYGQPLLLSVPKHKLTLESLYQAVCDRISRYVKQPLPDEFGSSPLEPGACNGSRNSCEGEDEEEMEHQEEGKEQLSETEGSGEDEPGNDPSETTQKKIKGQPCPKRLFTFSLVNSYGTADINSLAADGKLLKLNSRSTLAMDWDSETRRLYYDEQESEAYEKHVSMLQPQKKKKTTVALRDCIELFTTMETLGEHDPWYCPNCKKHQQATKKFDLWSLPKILVVHLKRFSYNRYWRDKLDTVVEFPIRGLNMSEFVCNLSARPYVYDLIAVSNHYGAMGVGHYTAYAKNKLNGKWYYFDDSNVSLASEDQIVTKAAYVLFYQRRDD
notes: USP4, human, residues 8-925, switching loop mutant F386G; made with the QuickChange mutagenesis kit
Take B4: in assay [6], the “k_fast (dissociation, fast component)” value is 0.26 ± 0.01 s⁻¹ and the “k_slow (dissociation, slow component)” value turned out to be 0.024 ± 0.002 s⁻¹.

Values taken from publication PMC4243247 (Nature Communications, 2014).
